One block for each binder: values may come before it.
Tests used:
[1] = target: T1, recombinant soluble human FcγRIIIa V158 (human, UniProt P08637 17-208); assay: SPR ProteOn XPR36, His-tagged receptor captured on anti-poly-histidine IgG, equilibrium model
T1 construct: also called FcγRIIIa valine V158; CD16
Method: (§1) A goat anti-poly-histidine IgG was immobilised on a GLM biosensor chip by primary amine coupling. This surface was used as a capture surface for the poly-histidine tagged human Fc gamma receptors. […] The goat anti-poly-histidine IgG surface was regenerated with 100 mM phosphoric acid between interactions. The run was carried out on the ProteOn XPR36 Protein Array Interaction System at 25° C. and using HBS-EP as running buffer. Data was analysed for each receptor separately, setting a global R-max and using the Equilibrium Model inherent to the ProteOn's analysis software. Control molecules were run at the beginning and the end of the set of samples to be tested to ensure comparability of results. Data was compared from two experiments and hybrid control antibodies used as controls between experiments.

[2] = target: T2, recombinant soluble human FcγRIIIa F158 (human, UniProt P08637 17-208); assay: as above
T2 construct: also called FcγRIIIa phenylalanine F158; CD16
T2 sequence (P08637 17-208 limits assumed): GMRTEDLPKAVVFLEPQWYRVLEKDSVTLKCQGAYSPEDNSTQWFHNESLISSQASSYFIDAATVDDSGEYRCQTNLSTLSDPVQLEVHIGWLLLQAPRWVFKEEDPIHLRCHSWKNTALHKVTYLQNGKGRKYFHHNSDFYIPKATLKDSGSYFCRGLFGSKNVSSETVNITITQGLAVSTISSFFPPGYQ
Method: as §1

[3] = target: T3, Recombinant human LAG-3 ECD-His6 (human, UniProt P18627 23-433); assay: SPR Biacore T100, Anova comparison of KD
T3 construct: also called LAG-3-His; recombinant human LAG-3-His
T3 sequence: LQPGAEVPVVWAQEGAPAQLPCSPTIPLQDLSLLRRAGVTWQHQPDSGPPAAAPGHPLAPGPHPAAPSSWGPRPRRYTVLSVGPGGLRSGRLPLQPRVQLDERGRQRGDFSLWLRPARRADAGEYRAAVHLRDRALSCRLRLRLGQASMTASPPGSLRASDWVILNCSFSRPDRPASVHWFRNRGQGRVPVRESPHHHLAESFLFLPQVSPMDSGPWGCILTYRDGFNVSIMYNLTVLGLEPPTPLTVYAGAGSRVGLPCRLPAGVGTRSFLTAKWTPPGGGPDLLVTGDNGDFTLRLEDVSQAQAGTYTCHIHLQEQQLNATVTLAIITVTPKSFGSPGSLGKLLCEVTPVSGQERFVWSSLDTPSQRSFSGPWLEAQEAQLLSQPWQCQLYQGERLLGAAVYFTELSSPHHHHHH
Method: Wild type fucosylated and afucosylated antibodies were compared for their ability to bind to recombinant human LAG-3 ECD with a C-terminal His6 (SEQ ID NO:51) using the Biacore™ T100 (GE Healthcare™). Protein A was immobilised on a CM5 chip by primary amine coupling. This surface was then used to capture the humanised antibodies. Recombinant human LAG-3 ECD-His6 was then passed over the captured antibodies at 32, 8, 2, 0.5 and 0.125 nM and regeneration was carried out using 50 mM NaOH. The binding curves were double referenced with buffer injection (i.e. 0 nM) and the data was fitted to the T100 analysis software using the 1:1 model. The run was carried out at 25° C., using HBS-EP as the running buffer.
In order to investigate the statistical significance of this kinetic data, this experiment was repeated 3 times with the same batch of the four antibodies and the chimeric control. KD, ka and kd parameters were each log (base 10) transformed prior to separate statistical analyses. For each parameter, a mixed model analysis of variance CAnova′) was performed on transformed data, including terms for Run (random block effect) and Antibody.
From the Anova, geometric means were predicted for each antibody, along with statistically plausible ranges (95% confidence intervals) for each mean. Planned comparisons of antibodies were performed within the Anova. […]

[4] = target: T4, Fc-tagged recombinant soluble LAG-3 (IMP321) (human, UniProt P18627 23-434); assay: SPR Biacore 3000, off-rate comparison with IMP731, IMP321 analyte at 64 nM
T4 construct: also called LAG3-Ig molecule IMP321; recombinant sLAG-3; not shown: Fc / Ig part
T4 sequence (looked up): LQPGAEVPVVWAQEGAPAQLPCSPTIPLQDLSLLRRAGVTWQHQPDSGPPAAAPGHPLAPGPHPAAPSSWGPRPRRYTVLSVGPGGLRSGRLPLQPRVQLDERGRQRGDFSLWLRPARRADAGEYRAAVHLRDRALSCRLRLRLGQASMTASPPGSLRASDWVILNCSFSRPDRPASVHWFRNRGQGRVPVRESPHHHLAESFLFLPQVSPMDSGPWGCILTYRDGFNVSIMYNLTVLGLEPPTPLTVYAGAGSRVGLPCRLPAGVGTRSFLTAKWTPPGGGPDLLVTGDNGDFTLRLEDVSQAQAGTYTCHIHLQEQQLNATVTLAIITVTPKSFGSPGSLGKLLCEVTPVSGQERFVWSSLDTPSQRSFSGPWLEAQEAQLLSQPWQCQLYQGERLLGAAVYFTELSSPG
Method: The binding kinetics of the purified antibodies for a sLAG-3 molecule were assessed by SPR using a Biacore™ 3000. A goat anti-human kappa antibody (Southern Biotech, Catalogue No. 2060-01) was immobilised on a CM5 chip by primary amine coupling. Humanised anti-LAG3 antibodies were captured on this surface and the LAG3-Ig molecule IMP321 (Chrystelle Brignone, Caroline Grygar, Manon Marcu, Knut Schakel, Frederic Triebel, The Journal of Immunology, 2007, 179: 4202-4211) used as the analyte at 64 nM with a buffer injection (i.e. 0 nM) used to double reference the binding curves. Regeneration was with 10 mM Glycine, pH1.5. The run was carried out on the Biacore™ 3000, using HBS-EP as running buffer and at 25° C. Sensorgrams were normalised for binding at maximal association and off-rates compared against IMP731 by visual inspection of the sensorgram profiles.

T1 sequence (P08637 17-208 F176V limits assumed): as the sequence (P08637 17-208 limits assumed) above, with F160V counted along it

fold improvement in affinity against H5L7 [1]: ~10 fold
fold improvement in affinity against H5L7 [2]: ~10 fold
KD ratio against H5L7 [3]: 1.05 ratio
B1: H5L7BW (antibody, human IgG1, kappa)
heavy: not shown
light: DIQMTQSPSSLSASVGDRVTITCKSSQSLLNPSNQKNYLAWYQQKPGKAPKLLVYFASTRDSGVPSRFSGSGSGTDFTLTISSLQPEDFATYYCLQHFGTPPTFGQGTKLEIKRTVAAPSVFIFPPSDEQLKSGTASVVCLLNNFYPREAKVQWKVDNALQSGNSQESVTEQDSKDSTYSLSSTLTLSKADYEKHKVYACEVTHQGLSSPVTKSFNRGEC
modifications: afucosylated: no fucose on the core carbohydrate structure attached to Asn297
notes: Same plasmids as H5L7, expressed in the BioWa POTELLIGENT (FUT8 knock-out CHO) cell line; also called afucosylated antibody H5L7BW; afucosylated H5L7

KD ratio against IMP731 [3]: 0.0774 ratio
Rank order of off-rates [4]: 1
B2: H5L7 (antibody, human IgG1, kappa)
heavy: not shown
light: B1 light
notes: Humanised IgG1/kappa of A9H12 (IMP731); also called fucosylated H5L7; non-ADCC enhanced variant H5L7

— patent US20160017037A1 (GlaxoSmithKline, published 2016)
